pKd: −log10 of the molar value.
Legend:
[1] = target: Aβ1-17, the 17 first amino acids of Aβ (UniProt P05067); test: concentration-dependent binding of recombinant netrin-1 to the peptide; format not stated
[2] = target: Aβ1-40 (UniProt P05067); test: concentration-dependent binding of recombinant netrin-1 to the Aβ peptide; format not stated

Substance: recombinant netrin-1 (species not stated) (ligand)
- pKd [1]: 7.52
- pKd [2]: 7.66
